Experimental data: publication PMC10323135

Target: Norovirus-like particle displaying C-terminal SpyTag (norovirus VP1 capsid protein fused with a C-terminal SpyTag) (norovirus strain Hu/GII.4/Sydney/NSW0514/2012/AU)
Experiment: SDS-PAGE mobility shift of the covalent SpyTag/SpyCatcher conjugate

Substance: SpyCatcher-M2e (SpyCatcher fused with the ectodomain of influenza matrix-2 protein) (designed binder)
- conjugation efficiency: 24%
